Measured values as given in US20250326826A1 (CENTRO DE INGENIER A GEN TICA Y BIOTECNOLOG A, published 2025).

Experiments:
Recombinant human bFGF [1] = target: T1, Recombinant human bFGF (human, UniProt P09038 143-288, limits assumed); assay: ELISA, coated human bFGF
T1 construct: Bought (Sigma); also called hFGF-2; human basic fibroblast growth factor
Description: (§1) The 96-well plates were coated with 100 μL/well of a solution of GST-hVEGF121, GST-mVEGF120, or GST at a concentration of 20 μg/mL, or with a solution of VEGFKDR- at a concentration of 10 μg/mL, or hFGF-2 or mFGF-2 at a concentration of 5 μg/mL in 1×PBS for 16 hours at 4° C. After the plates were blocked with PBS-5% skim milk for one hour, 1:2 serial dilutions of the purified VHHs were added, starting at 2 μg/mL in PBS-0.5% skim milk. The plates were incubated for 1 hour at 37° C. and after several washes, the monoclonal antibody 9E10, specific for c-myc, was added. After one hour of incubation at 25° C. the plates were washed thoroughly. The binding of the fragment to the antigen in the solid phase was detected by the peroxidase activity using 100 μL/well of TMB. The reaction was stopped with 50 μL/well of stop solution, and absorbance values at 450 nm were determined in a microtiter plate reader.
(§2) Specific binding to bFGF was evaluated as described in the bFGF recognition ELISAs of the Example 1. […] As in the case of Nb-V1, no recognition of GST or VEGF proteins was observed, thus reinforcing the evidence of the specificity of the binding of the Nb-F3 fragment to its antigen.

Recombinant human bFGF [2] = target: T1, Recombinant human bFGF; assay: ELISA, coated human bFGF; remark: listed apart in the source
Description: as §1
SEQ ID NO: 18 and SEQ ID NO: 19, and the bivalent Nb-VV6 and Nb-FF2, with sequences identified as SEQ ID NO: 20 and SEQ ID NO: 21, were expressed and purified as described in the Example 1. In all cases, the purity and identity of the proteins were verified by SDS-PAGE 12% and anti-polyhistidine Western Blot. […] The experimental mass of the polypeptides and the arrangement of the disulfide bridges were checked by ESI/MS-MS. The experimental and theoretical mass, for each polypeptide coincided, with errors less than 0.0015% in all cases, and the formation of intramolecular bridges between C22-C101 and C168-C247 was verified. […] The biological activity of the polypeptides was evaluated by ELISA for recognition of the VEGF and bFGF antigens, and by their ability to displace VEGF and bFGF binding to their respective VEGFR2 and FGFR1 receptors. […] Similarly, it was shown that the ability to displace the binding of antigens by their receptors was not affected.

GST-hVEGF121 [3] = target: T2, GST-hVEGF121 (human, UniProt P15692-9 27-147); assay: ELISA, coated antigen
T2 construct: plate coating of the VEGF ELISAs; also called human VEGF; not shown: glutathione S-transferase (GST) fusion partner
T2 sequence (looked up): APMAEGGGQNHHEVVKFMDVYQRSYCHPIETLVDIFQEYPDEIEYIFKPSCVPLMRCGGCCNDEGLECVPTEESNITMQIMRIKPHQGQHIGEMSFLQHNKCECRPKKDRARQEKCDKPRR
Description: (§3) After one hour of incubation at 25° C. the plates were washed thoroughly. The binding of the fragment to the antigen in the solid phase was detected by the peroxidase activity using 100 μL/well of TMB. The reaction was stopped with 50 μL/well of stop solution, and absorbance values at 450 nm were determined in a microtiter plate reader.
(§4) The main characteristic of an antibody and its derived fragments is their recognition of the antigen, which determines their specificity and affinity. Specific binding to VEGF was evaluated as described in the section “ELISA for VHHs recognition of their target antigen” (Example 1). […] Nb-V1 also recognized a mutated variant of VEGF121 in the ELISA system where, in the so-called 80's loop, amino acids R82, K84 and H86 are replaced by E82, E84 and E86. It shares this property with CIGB166a, but differentiates it from Bevacizumab.
(§5) Specific binding to bFGF was evaluated as described in the bFGF recognition ELISAs of the Example 1.

Mouse bFGF = target: T3, Mouse bFGF (mouse, UniProt P15655 10-154, limits assumed); assay: ELISA, coated mouse bFGF
T3 construct: Bought (SinoBiological); also called mFGF-2
T3 sequence (P15655 10-154 limits assumed): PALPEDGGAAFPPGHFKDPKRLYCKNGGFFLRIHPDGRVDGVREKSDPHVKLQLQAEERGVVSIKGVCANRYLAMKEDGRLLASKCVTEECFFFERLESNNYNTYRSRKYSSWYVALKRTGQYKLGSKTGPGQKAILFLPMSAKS
Description: as §1, §2

Recombinant human bFGF [4] = target: T1, Recombinant human bFGF; assay: competition ELISA, coated bFGF, competitor Fc-FGFR1
Description: (§6) The ability of VHHs to hinder receptors for binding to their ligand was assessed by ELISA, for which 96-well plates (NUNC, USA) were coated with GST-hVEGF or bFGF and blocked as described in the previous section. Serial 1:2 dilutions of the purified VHHs, from […] to […], were added and the plates and incubated for 1 h at 37° C. In this step, some wells were left where only PBS-milk was added. […] After 45 min incubation at 37° C., plates were washed with PBS-0.05% Tween. To detect receptor binding, HRP-conjugated anti-human IgG antibody was added, diluted 1:5000 in PBS-0.5% milk. After incubation for 1 h at 37° C., the plates were washed with PBS-Tween, and TMB was added. The reaction was stopped after 10 min. Wells incubated with the receptors without the addition of the antibody fragments were taken as reference for maximum binding in the absence of competitor. In this assay, in the case of inhibition of the VEGF/VEGFR axis, the CIGB166a antibody fragment was used as a positive control, and an anti-FGF polyclonal antibody was used for the FGF/FGFR axis. The percentage of inhibition of receptor binding to its ligand was calculated as follows: […]

[5] = target: bFGF (soluble stimulus added to cell cultures); assay: cell-based or functional assay
[6] = target: VEGF (soluble stimulus added to cell cultures); assay: cell-based or functional assay
VEGF (soluble stimulus added to cell cultures), sequence (P15692 whole entry): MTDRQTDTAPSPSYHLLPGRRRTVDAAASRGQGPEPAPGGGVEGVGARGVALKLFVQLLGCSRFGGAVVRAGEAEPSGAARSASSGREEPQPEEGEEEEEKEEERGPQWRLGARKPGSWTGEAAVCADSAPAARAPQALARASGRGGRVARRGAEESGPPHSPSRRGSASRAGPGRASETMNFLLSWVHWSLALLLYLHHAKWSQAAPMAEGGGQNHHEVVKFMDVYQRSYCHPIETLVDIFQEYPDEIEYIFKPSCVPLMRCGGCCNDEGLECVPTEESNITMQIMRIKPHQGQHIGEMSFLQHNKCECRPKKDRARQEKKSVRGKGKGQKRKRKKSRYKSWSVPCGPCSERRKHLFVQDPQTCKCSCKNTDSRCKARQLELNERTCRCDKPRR

Recombinant human bFGF [7] = target: T1, Recombinant human bFGF; assay: ELISA, coated bFGF
Description: as §3, with “The plates were incubated for 1 hour at 37° C. and after several washes, the monoclonal antibody 9E10, specific for c-myc, was added. After” for “After”
SEQ ID NO: 18 and SEQ ID NO: 19, and the bivalent Nb-VV6 and Nb-FF2, with sequences identified as SEQ ID NO: 20 and SEQ ID NO: 21, were expressed and purified as described in the Example 1. In all cases, the purity and identity of the proteins were verified by SDS-PAGE 12% and anti-polyhistidine Western Blot. […] The experimental mass of the polypeptides and the arrangement of the disulfide bridges were checked by ESI/MS-MS. […] The biological activity of the polypeptides was evaluated by ELISA for recognition of the VEGF and bFGF antigens, and by their ability to displace VEGF and bFGF binding to their respective VEGFR2 and FGFR1 receptors. […] In agreement with the increase in recognition, a decrease in the KD of the fragments was observed, calculated according to the methodology described by Beatty et al (Beatty J D, Beatty B G, Vlahos W G. J Immunol Methods. 1987 Jun. 26;100(1-2):173-9).

[8] = target: T4, CHO-VEGF (hVEGF121 produced in the CHO cell line) (human, UniProt P15692-9 27-147); assay: competition ELISA, coated CHO hVEGF121, competitor biotinylated Bevacizumab
T4 construct: any tag is not described
T4 sequence (looked up): T2 sequence (looked up)
Description: (§7) Their displacement from their binding to VEGF could be an indication of the potentiality of the new polypeptides to mediate the desired effects in vivo. The ability of anti-VEGF VHH to compete with Bevacizumab antibody and CIGB166a antibody fragment for binding to its ligand was assessed by a variation of the solid phase ligand competition ELISA as described. 96-well plates (NUNC, Germany) were coated with 1 μg/mL hVEGF121, produced in the CHO cell line. Serial dilutions of purified VHHs were added, from 15,000 nM to 1,200 nM.
(§8) Biotinylated Bevacizumab or biotinylated-CIGB166a were then added, diluted in blocking solution to a final concentration of 2.3 ng/mL and 14.3 ng/ml, respectively. To detect the binding of biotinylated antibodies, streptavidin conjugated to HRP was added. The wells incubated with Biotinylated Bevacizumab or biotinylated-CIGB166a, without the addition of the antibody fragments, were taken as reference of maximum binding in the absence of competitor. In this assay, the Fc-VEGFR2 receptor chimera was used as a positive control. The percentage of inhibition of the binding of Bevacizumab, CIGB166a or VEGFR2 to its ligand was calculated as described above in the Example 1.

GST-hVEGF121 [9] = target: T2, GST-hVEGF121; assay: ELISA, coated GST-hVEGF121, detection with anti-c-myc 9E10
Description: as §1
(§9) The main characteristic of an antibody and its derived fragments is their recognition of the antigen, which determines their specificity and affinity. Specific binding to VEGF was evaluated as described in the section “ELISA for VHHs recognition of their target antigen” (Example 1). […] Nb-V1 also recognized a mutated variant of VEGF121 in the ELISA system where, in the so-called 80's loop, amino acids R82, K84 and H86 are replaced by E82, E84 and E86. […]

Recombinant human bFGF [10] = target: T1, Recombinant human bFGF; assay: ELISA, coated antigen
Description: as §3, §4, §5

GST-mVEGF120 = target: T5, GST-mVEGF120 (mouse, UniProt Q00731-3 27-146); assay: ELISA, coated GST-mVEGF120
T5 construct: Produced in E. coli; also called mouse VEGF; mouse growth factor; not shown: glutathione S-transferase (GST) fusion partner
T5 sequence (looked up): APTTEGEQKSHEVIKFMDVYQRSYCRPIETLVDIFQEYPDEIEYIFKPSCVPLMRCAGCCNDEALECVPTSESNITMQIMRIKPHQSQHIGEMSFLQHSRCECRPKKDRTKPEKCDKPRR
Description: as §1, §9

GST-hVEGF121 [11] = target: T2, GST-hVEGF121; assay: ELISA, coated GST-hVEGF121
Description: as §1, §9

[12] = target: Human VEGF (dendritic cell assay) (human, UniProt P15692-4 27-191, limits assumed); assay: cell-based or functional assay
[13] = target: VEGF (soluble stimulus added to cell cultures); assay: cell-based or functional assay; remark: listed apart in the source
[14] = target: T4, CHO-VEGF (hVEGF121 produced in the CHO …); assay: competition ELISA, coated CHO hVEGF121, competitor biotinylated CIGB166a
Description: as §7, §8

GST-hVEGF121 [15] = target: T2, GST-hVEGF121; assay: competition ELISA, coated GST-hVEGF, competitor Fc-VEGFR2
Description: as §6
The biological effect of VEGF is a consequence of its binding to two fundamental receptors (VEGFR1 and VEGFR2), so for a polypeptide that binds to VEGF to be effective in the therapeutic setting, it must block these interactions (Shibuya, Cell Structure and Function, 2001: 26: 25-35). The ability of Nb-V1 to compete with receptors 1 and 2 for binding to its ligand (VEGF) was assessed by solid phase ligand competition ELISA, as described above.

GST-hVEGF121 [16] = target: T2, GST-hVEGF121; assay: ELISA, coated GST-hVEGF
Description: as §1

T1 sequence (P09038 143-288 limits assumed): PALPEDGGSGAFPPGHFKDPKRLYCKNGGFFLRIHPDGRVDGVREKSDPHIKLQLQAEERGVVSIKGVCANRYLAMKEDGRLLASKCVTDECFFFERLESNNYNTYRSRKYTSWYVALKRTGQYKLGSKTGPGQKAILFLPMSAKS

B1: Nb-F3 (VHH)
VHH: QVQLVESGGGLVQPGGSLRLSCAASGTEDGRLLTLGGSWFRQAPGQGLEAVAAIGAGDRGGATYYADSVKGRFTISRDNSKNTLYLQMNSLRAEDTAVYYCTALYERQPQLAATKVARKWGQGTLVTVSS
notes: carries the C-terminal c-myc tracer peptide and histidine tag; also called VHH Nb-F3
fold increase in recognition against Nb-A5 (Recombinant human bFGF [1]): 5 fold
EC50 (Recombinant human bFGF [2]): 11.3 nM
binding result (GST-hVEGF121 [3]): no binding
EC50 (Mouse bFGF): 11.5 nM
IC50 (Recombinant human bFGF [4]): 134 nM
IC50, proliferation of HDMEC cells +bFGF (10 ng/ml) [5]: 121 nM
IC50, proliferation of HDMEC cells +VEGF (5 ng/ml) [6]: > 6 µM

B2: Nb-FF2 (VHH)
chain: QVQLVESGGGLVQPGGSLRLSCAASGTEDGRLLTLGGSWFRQAPGQGLEAVAAIGAGDRGGATYYADSVKGRFTISRDNSKNTLYLQMNSLRAEDTAVYYCTALYERQPQLAATKVARKWGQGTLVTVSSAHHSEDPSSKAPKAPAQVQLVESGGGLVQPGGSLRLSCAASGTEDGRLLTLGGSWFRQAPGQGLEAVAAIGAGDRGGATYYADSVKGRFTISRDNSKNTLYLQMNSLRAEDTAVYYCTALYERQPQLAATKVARKWGQGTLVTVSSAAAGSEQKLISEEDLNSHHHHHH
notes: Bivalent monospecific tandem VHH for bFGF; with c-myc and histidine tag
EC50 (Recombinant human bFGF [2]): 5.86 nM
fold decrease of EC50 against Nb-F3 (Recombinant human bFGF [7]): 2 fold
IC50 (Recombinant human bFGF [4]): 53.5 nM
IC50, proliferation of HDMEC cells +bFGF (10 ng/ml) [5]: 50 nM
IC50, proliferation of HDMEC cells +VEGF (5 ng/ml) [6]: > 6 µM

B3: Nb-V1 (VHH)
VHH: QVQLVESGGGLVQPGGSLRLSCAASGNSAEDRLYNSYTWFRQAPGQGLEAVAAISSHFSAGLTYYADSVKGRFTISRDNSKNTLYLQMNSLRAEDTAVYYCEITSHASHNDAWSTPRTVWGQGTLVTVSS
notes: carries the C-terminal c-myc tracer peptide and histidine tag; also called VHH Nb-V1
IC50 [8]: 931 nM
EC50 (GST-hVEGF121 [9]): 4.73 nM
binding result (Recombinant human bFGF [10]): no binding
EC50 (GST-mVEGF120): 4.08 nM
fold lower EC50 than Nb-E7 (GST-hVEGF121 [11]): 3 fold
CD86 (MFI) on dendritic cells +VEGF +LPS, VHH 1 µg/mL [12]: 1560 MFI
CD86 (MFI) on dendritic cells +VEGF +LPS, VHH 5 µg/mL [12]: 3000 MFI
CD86 (MFI) on dendritic cells +VEGF +LPS, VHH 10 µg/mL [12]: 17200 MFI
MHCII (MFI) on dendritic cells +VEGF +LPS, VHH 1 µg/mL [12]: 4700 MFI
MHCII (MFI) on dendritic cells +VEGF +LPS, VHH 5 µg/mL [12]: 5200 MFI
MHCII (MFI) on dendritic cells +VEGF +LPS, VHH 10 µg/mL [12]: 17000 MFI
PD1 expression (%) in CD8+ cells treated with VEGF, VHH 1 µg/mL [13]: 64%
PD1 expression (%) in CD8+ cells treated with VEGF, VHH 5 µg/mL [13]: 58%
PD1 expression (%) in CD8+ cells treated with VEGF, VHH 10 µg/mL [13]: 38%
IC50 [14]: 67.5 nM
IC50 (GST-hVEGF121 [15]): 28.6 nM
IC50, proliferation of HDMEC cells +bFGF (10 ng/ml) [5]: > 6000 nM
IC50, proliferation of HDMEC cells +VEGF (5 ng/ml) [6]: 0.116 µM
EC50 (GST-hVEGF121 [16]): 4.45 nM
